Assay results as given in US20230192897A1 (NUMAB THERAPEUTICS, published 2023).

How the values were obtained:
[1] = biological target: T1, CD137 on Jurkat NFkB reporter cells (human, UniProt Q07011 24-255); test: cell-based or functional assay
biotinylated human PDL1 [2] = biological target: T2, biotinylated human PDL1 (human, UniProt Q9NZQ7 19-238, limits assumed, biotinylated); test: competition ELISA B7.1/PDL1
T2 construct: also called biotinylated PDL1
Summary of the method: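 Test mixtures containing biotinylated human PDL1 were pre-incubated 1 h at room temperature, then incubated 1.5 h on the plate under agitation. Bound PDL1 detected with 10 ng/ml streptavidin-polyHRP40 and TMB, stopped at 6 min with HCl, read at 450 nm minus 690 nm. IC₅₀ from 4PL fit.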

[3] = biological target: T1, CD137 on Jurkat NFkB reporter cells; test: cell-based or functional assay; remark: listed apart in the source
[4] = biological target: T1, CD137 on Jurkat NFkB reporter cells; test: cell-based or functional assay; remark: listed apart in the source
[5] = biological target: T3, human CD137 extracellular domain (human, UniProt Q07011 24-186); test: SPR, IgG format captured
T3 construct: also called CD137 (PeproTech, cat. 310-15)
Procedure: (§1) Affinity to PDL1 of the different species was determined by SPR measurements using a Biacore T200 device (GE Healthcare). An antibody specific for the Fc region of human IgGs was immobilized on a sensor chip (CM5 sensor chip, GE Healthcare) by amine-coupling. For all formats, with the exception of the Fc containing Morrison formats, PDL1-Fc chimeric protein from different species were captured by the immobilized antibody.
(§2) The Fc containing formats were directly captured by the antibody specific for the Fc region of human IgGs. Two-fold serial dilutions of PDL1 extracellular domain or CD137 extracellular domain ranging from 90 to 0.35 nM were tested for binding to the IgG captured on the biosensor chip. After each injection cycle, surfaces were regenerated with one injection of a 3 M MgCl2 solution.

[6] = biological target: human PDL1 extracellular domain (human, UniProt Q9NZQ7 19-238); test: SPR, IgG format captured
Procedure: as §1, §2

human PDL1 on cells = human PDL1 on cells (human, UniProt Q9NZQ7 19-290); test: cell-based or functional assay
biotinylated human PDL1 [7] = biological target: T2, biotinylated human PDL1; test: competition ELISA PD-1/PDL1
[8] = biological target: T1, CD137 on Jurkat NFkB reporter cells; test: cell-based or functional assay; remark: listed apart in the source
[9] = biological target: T1, CD137 on Jurkat NFkB reporter cells; test: cell-based or functional assay; remark: listed apart in the source
[10] = biological target: cynomolgus CD137-Fc chimeric protein (cynomolgus monkey, UniProt A9YYE7 24-186); test: SPR
Summary of the method: (§3)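 Kinetics were fitted with a one-to-one Langmuir model to give apparent ka, kd and KD. Binders at 0.12-90 nM (three-fold series) flowed 3 min, with 10 min dissociation and 3 M MgCl₂ regeneration, on a Biacore T200.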

[11] = biological target: T4, mouse CD137-Fc chimeric protein (mouse, UniProt P20334 24-187, limits assumed); test: SPR
T4 sequence (looked up): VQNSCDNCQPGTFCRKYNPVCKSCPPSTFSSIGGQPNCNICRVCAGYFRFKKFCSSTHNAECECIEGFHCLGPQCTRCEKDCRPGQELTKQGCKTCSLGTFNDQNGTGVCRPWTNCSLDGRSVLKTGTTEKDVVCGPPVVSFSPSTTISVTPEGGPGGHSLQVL
Summary of the method: as §3

Fc tagged human CD137 = biological target: T5, Fc tagged human CD137 (human, UniProt Q07011 24-186); test: SPR
T5 construct: also called CD137-Fc chimeric protein
Summary of the method: as §3

Fc tagged human PDL1 = biological target: T6, Fc tagged human PDL1 (human, UniProt Q9NZQ7 19-239); test: SPR
T6 construct: Bought (Sino Biological, cat. 10084-H02H); captured on the SPR chip; also called PDL1-Fc chimeric protein
Summary of the method: as §3

B1: PRO1060 (bispecific antibody, human IgG1, kappa, L234A L235A)
light: DIQMTQSPSSLSASVGDRVTITCQASQSINDYLAWYQQKPGKAPKLLIYKASTLASGVPSRFSGSGSGTDFTLTISSLQPEDFATYYCQQGYIITDIDNVFGTGTKVTVLGTVAAPSVFIFPPSDEQLKSGTASVVCLLNNFYPREAKVQWKVDNALQSGNSQESVTEQDSKDSTYSLSSTLTLSKADYEKHKVYACEVTHQGLSSPVTKSFNRGEC
heavy: QVQLQESGPGLVKPSETLSLTCKVSGFSFSSGYDMCWIRQPPGKGLEWIGCVVAGSVDITYYASWAKGRVTISVDSSKNQFSLKLSSVTAADTAVYYCARKDAYSDAFNLWGQGTLVTVSSASTKGPSVFPLAPSSKSTSGGTAALGCLVKDYFPEPVTVSWNSGALTSGVHTFPAVLQSSGLYSLSSVVTVPSSSLGTQTYICNVNHKPSNTKVDKRVEPKSCDKTHTCPPCPAPEAAGGPSVFLFPPKPKDTLMISRTPEVTCVVVDVSHEDPEVKFNWYVDGVEVHNAKTKPREEQYNSTYRVVSVLTVLHQDWLNGKEYKCKVSNKALGAPIEKTISKAKGQPREPQVYTLPPSREEMTKNQVSLTCLVKGFYPSDIAVEWESNGQPENNYKTTPPVLDSDGSFFLYSKLTVDKSRWQQGNVFSCSVMHEALHNHYTQKSLSLSPGKGGGGSGGGGSIQMTQSPSSLSASVGDRVTITCQASQSINNVLAWYQQKPGKAPKLLIYRASTLASGVPSRFSGSGSGTDFTLTISSLQPEDFATYYCQSSYGNYGDFGTGTKVTVLGGGGGSGGGGSGGGGSGGGGSQVQLQESGPGLVKPSETLSLTCKVSGFSFSNSYWICWIRQPPGKGLEWIGCTFVGSSDSTYYANWAKGRVTISVDSSKNQFSLKLSSVTAADTAVYYCARHPSDAVYGYANNLWGQGTLVTVSS
notes: silent hIgG1 anti-PDL1 with anti-CD137 scFv on the heavy chain; also called 33-03-G02 IgG1 HC with 38-02-A04 sc01 scFv; Morrison-H
For B1, the “EC50, NFkB reporter, HCC827 with IFNg, 24 h” value [1] was 0.0175 µg/mL, the “EC50, NFkB reporter, HCC827 without IFNg, 24 h” value [1] was 0.0136 µg/mL and the IC50 (biotinylated human PDL1 [2]) was 0.0174 µg/mL. The “rel. IC50 (IC50 avelumab/IC50 test)” value (biotinylated human PDL1 [2]) was 0.49 fold, the “EC50, NFkB reporter, CHO-PDL1, 6 h” value [3] was 0.0564 µg/mL and the “EC50, NFkB reporter, CHO-PDL1, 24 h” value [4] was 0.0808 µg/mL. For the same binder, the Kd [5] was 1.3 nM, the koff [5] was 0.00039 s⁻¹ and the koff [6] was 4.6e-05 s⁻¹. The kon [6] was 1.3e+06 M⁻¹ s⁻¹, the “IC50 (ng/ml), NF-AT potency assay” value (human PDL1 on cells) was 133 ng/mL and the “rel. IC50 (avelumab/test)” value (human PDL1 on cells) was 0.44 fold. For the same binder, the IC50 (biotinylated human PDL1 [7]) was 0.00567 µg/mL, the “rel. IC50 (IC50 avelumab/IC50 test)” value (biotinylated human PDL1 [7]) was 0.3 fold and the “IC50 (ng/ml), NFkB reporter, CHO-PD-L1, 24 h” value [8] was 80.8 ng/mL. The “IC50 (ng/ml), NFkB reporter, HCC827 + IFNg, 24 h” value [8] was 17.5 ng/mL, the “IC50 (ng/ml), NFkB reporter, HCC827 - IFNg, 24 h” value [8] was 13.6 ng/mL and the “rel. IC50 (urelumab/test), NFkB reporter, CHO-PD-L1, 24 h” value [8] was 0.58 fold. The “rel. IC50 (urelumab/test), NFkB reporter, HCC827 + IFNg, 24 h” value [8] was 3.01 fold and the “rel. IC50 (urelumab/test), NFkB reporter, HCC827 - IFNg, 24 h” value [8] was 3.5 fold.

B2: PRO951 (bispecific antibody)
chain: DIQMTQSPSSLSASVGDRVTITCQASQSINDYLAWYQQKPGKAPKLLIYKASTLASGVPSRFSGSGSGTDFTLTISSLQPEDFATYYCQQGYIITDIDNVFGTGTKVTVLGGGGGSEVQLVESGGGLVQPGGSLRLSCAASGFSFNNDYDMCWVRQAPGKGLEWIGCIDTGDGSTYYASWAKGRFTISRDNSKNTVYLQMNSLRAEDTAVYYCAREAASSSGYGMGYFDLWGQGTLVTVSSGGGGSGGGGSGGGGSGGGGSIQMTQSPSSLSASVGDRVTITCQSSQSVYDNNWLAWYQQKPGKAPKLLIYRASNLASGVPSRFSGSGSGTDFTLTISSLQPEDFATYYCQGTYLSSNWYWAFGTGTKVTVLGGGGGSQVQLQESGPGLVKPSETLSLTCKVSGFSFSSGYDMCWIRQPPGKGLEWIGCVVAGSVDITYYASWAKGRVTISVDSSKNQFSLKLSSVTAADTAVYYCARKDAYSDAFNLWGQGTLVTVSS
notes: scDb anti-PDL1 x CD137; also called 38-27-C05 sc02 scDb-i/33-03-G02 sc01 scDb-o
With B2 the IC50 (biotinylated human PDL1 [2]) was 0.0093 µg/mL, the “rel. IC50 (IC50 avelumab/IC50 test)” value (biotinylated human PDL1 [2]) was 0.78 fold and the “IC50 (ng/ml), NF-AT potency assay” value (human PDL1 on cells) was 88.5 ng/mL. For the same binder, the “rel. IC50 (avelumab/test)” value (human PDL1 on cells) was 0.47 fold, the IC50 (biotinylated human PDL1 [7]) was 0.0095 µg/mL and the “rel. IC50 (IC50 avelumab/IC50 test)” value (biotinylated human PDL1 [7]) was 0.15 fold. The “EC50, NFkB reporter, CHO-PDL1” value [9] was 0.0337 µg/mL, the Kd [10] was 6.9 nM and the koff [10] was 0.01 s⁻¹. For the same binder, the kon [10] was 1.5e+06 M⁻¹ s⁻¹, the binding result [11] was “no binding” and the Kd (Fc tagged human CD137) was 4.2 nM. For the same binder, the kon (Fc tagged human PDL1) was 2.2e+06 M⁻¹ s⁻¹, the “IC50 (ng/ml), NFkB reporter, CHO-PD-L1” value [8] was 33.7 ng/mL and the “max. activation (%), NFkB reporter, CHO-PD-L1” value [8] was 432%. For the same binder, the “rel. IC50 (urelumab/test), NFkB reporter, CHO-PD-L1” value [8] was 2.35 fold.
